According to patent publication US7897364:

T1: agrin-C45
T1 chain: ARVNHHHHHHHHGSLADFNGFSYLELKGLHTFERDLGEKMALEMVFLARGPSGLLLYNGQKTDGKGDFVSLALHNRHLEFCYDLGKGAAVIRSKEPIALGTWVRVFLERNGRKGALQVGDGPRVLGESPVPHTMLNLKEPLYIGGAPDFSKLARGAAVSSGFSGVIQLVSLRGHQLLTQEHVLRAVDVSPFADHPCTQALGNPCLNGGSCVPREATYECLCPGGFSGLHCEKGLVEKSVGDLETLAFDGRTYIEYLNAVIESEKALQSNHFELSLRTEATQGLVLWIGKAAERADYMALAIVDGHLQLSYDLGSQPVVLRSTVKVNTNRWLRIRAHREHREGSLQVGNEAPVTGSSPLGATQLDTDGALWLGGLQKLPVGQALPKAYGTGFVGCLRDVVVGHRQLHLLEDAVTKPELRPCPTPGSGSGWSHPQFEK


Legend:
[1] = target: agrin (endogenous, in mouse spinal cord and brain), A2ASQ1
Chain of agrin (endogenous, in mouse spinal cord and brain), A2ASQ1 (A2ASQ1 whole entry, canonical isoform): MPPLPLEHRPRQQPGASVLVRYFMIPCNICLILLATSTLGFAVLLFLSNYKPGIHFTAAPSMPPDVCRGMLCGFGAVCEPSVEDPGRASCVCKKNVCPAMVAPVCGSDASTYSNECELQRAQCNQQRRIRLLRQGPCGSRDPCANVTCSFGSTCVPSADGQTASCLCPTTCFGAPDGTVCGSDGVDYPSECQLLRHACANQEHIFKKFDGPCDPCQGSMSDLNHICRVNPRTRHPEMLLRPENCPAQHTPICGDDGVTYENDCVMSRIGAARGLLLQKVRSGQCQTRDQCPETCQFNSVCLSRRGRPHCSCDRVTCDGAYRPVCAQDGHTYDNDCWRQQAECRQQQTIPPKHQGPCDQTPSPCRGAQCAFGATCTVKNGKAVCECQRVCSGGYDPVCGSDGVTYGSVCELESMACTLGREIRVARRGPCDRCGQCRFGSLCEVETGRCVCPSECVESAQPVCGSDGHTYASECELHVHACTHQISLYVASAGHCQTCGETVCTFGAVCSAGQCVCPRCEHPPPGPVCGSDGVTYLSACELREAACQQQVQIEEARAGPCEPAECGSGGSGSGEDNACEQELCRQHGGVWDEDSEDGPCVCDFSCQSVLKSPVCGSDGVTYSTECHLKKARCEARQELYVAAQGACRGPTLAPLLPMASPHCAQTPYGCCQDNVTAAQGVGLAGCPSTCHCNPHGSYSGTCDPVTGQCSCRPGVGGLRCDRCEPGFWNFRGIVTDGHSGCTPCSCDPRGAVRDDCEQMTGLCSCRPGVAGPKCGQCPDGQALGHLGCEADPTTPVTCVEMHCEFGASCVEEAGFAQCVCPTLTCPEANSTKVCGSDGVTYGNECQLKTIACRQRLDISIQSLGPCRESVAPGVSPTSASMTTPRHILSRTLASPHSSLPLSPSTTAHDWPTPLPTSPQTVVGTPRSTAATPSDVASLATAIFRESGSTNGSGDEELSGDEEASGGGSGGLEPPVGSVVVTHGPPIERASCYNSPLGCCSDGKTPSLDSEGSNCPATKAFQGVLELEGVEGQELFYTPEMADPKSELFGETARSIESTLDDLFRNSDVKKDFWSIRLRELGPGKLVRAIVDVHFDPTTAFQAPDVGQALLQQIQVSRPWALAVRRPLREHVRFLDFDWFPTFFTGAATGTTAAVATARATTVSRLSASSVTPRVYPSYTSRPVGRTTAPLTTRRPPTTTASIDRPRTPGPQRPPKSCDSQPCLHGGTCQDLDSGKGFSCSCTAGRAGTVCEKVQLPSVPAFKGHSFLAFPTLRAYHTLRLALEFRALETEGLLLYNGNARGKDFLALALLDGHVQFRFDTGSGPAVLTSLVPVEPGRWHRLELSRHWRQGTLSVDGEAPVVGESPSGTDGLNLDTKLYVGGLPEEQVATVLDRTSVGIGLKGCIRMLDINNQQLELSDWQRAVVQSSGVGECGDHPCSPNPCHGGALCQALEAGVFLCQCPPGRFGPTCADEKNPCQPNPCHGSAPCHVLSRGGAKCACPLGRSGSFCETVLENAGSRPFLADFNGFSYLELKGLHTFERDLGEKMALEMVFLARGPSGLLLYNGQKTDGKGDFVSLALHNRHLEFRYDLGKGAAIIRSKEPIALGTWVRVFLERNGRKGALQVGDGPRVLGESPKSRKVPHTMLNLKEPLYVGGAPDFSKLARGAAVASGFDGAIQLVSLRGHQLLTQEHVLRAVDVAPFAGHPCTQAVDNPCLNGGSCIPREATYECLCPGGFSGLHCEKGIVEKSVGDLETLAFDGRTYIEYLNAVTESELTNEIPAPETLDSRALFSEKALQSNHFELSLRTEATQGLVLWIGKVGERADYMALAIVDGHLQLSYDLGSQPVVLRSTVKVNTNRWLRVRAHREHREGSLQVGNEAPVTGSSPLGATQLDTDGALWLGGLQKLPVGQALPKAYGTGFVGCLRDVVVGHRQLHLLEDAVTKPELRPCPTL

[2] = target: rat agrin, transmembrane isoform containing the splice variants Y4 and Z8, P25304
Chain of rat agrin, transmembrane isoform containing the splice variants Y4 and Z8, P25304 (P25304 whole entry, looked up, change not shown, canonical isoform): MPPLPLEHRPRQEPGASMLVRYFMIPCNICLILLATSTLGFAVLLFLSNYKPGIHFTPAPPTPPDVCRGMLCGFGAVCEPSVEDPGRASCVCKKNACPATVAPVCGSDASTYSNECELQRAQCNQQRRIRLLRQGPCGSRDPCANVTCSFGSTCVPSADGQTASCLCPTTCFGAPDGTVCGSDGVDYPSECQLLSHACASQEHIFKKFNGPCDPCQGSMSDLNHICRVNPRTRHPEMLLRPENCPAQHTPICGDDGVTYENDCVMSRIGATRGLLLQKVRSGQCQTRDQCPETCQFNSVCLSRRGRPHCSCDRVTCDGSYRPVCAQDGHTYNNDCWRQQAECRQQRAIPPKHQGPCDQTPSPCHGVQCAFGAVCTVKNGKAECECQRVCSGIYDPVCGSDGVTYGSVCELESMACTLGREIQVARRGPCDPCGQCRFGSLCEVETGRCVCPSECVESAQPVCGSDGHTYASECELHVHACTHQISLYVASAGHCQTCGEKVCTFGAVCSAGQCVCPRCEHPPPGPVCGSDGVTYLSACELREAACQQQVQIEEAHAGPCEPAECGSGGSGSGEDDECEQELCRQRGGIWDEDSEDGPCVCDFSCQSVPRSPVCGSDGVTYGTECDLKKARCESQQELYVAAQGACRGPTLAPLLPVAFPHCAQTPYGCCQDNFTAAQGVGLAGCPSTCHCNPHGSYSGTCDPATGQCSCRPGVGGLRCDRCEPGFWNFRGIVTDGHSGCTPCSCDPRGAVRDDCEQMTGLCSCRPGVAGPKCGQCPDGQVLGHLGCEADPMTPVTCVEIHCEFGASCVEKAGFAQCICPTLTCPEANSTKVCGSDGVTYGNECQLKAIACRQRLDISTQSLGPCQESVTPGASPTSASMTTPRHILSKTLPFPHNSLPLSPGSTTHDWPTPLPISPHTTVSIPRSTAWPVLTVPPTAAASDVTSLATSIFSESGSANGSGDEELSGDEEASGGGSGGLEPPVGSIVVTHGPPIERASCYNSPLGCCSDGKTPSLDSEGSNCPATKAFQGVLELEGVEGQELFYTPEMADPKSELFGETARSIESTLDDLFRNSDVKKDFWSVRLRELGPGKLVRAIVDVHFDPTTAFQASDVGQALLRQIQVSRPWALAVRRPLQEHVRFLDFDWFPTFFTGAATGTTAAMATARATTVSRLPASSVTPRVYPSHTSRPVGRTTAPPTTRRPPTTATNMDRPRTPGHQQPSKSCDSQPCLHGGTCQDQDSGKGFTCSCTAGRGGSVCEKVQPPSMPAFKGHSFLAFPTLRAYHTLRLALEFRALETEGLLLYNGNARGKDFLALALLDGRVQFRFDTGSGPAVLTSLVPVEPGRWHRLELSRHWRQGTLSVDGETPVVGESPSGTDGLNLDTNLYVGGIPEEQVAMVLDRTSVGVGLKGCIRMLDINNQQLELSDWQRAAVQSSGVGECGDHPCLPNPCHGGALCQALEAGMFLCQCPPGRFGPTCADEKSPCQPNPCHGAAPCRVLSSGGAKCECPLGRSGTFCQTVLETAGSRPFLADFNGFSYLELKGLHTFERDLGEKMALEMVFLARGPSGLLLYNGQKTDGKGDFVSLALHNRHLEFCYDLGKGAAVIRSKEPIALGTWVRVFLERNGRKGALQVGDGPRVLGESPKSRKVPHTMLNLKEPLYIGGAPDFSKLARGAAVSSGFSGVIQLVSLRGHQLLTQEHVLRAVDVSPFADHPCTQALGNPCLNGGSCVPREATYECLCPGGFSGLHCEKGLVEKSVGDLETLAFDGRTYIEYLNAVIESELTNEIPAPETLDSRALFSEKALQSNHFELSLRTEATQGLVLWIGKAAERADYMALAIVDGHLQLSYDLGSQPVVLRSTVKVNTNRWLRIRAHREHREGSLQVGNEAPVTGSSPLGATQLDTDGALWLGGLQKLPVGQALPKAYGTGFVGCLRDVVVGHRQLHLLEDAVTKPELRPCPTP

agrin-C45 = target: T1, agrin-C45

Row | Protein | temporal pattern of the C-terminal 100-kDa agrin fragment and of neurotrypsin in mouse spinal cord (Western blot) [1] | 150 kDa C-terminal fragment of agrin-EGFP (Western blot) (agrin-EGFP) | release of a 100-kDa agrin fragment into the culture medium (Western blot) [2] | cleavage of purified agrin-C45 by purified neurotrypsin (silver stained SDS-PAGE) (agrin-C45) | cleavage of purified agrin-EGFP by purified neurotrypsin (SDS-PAGE, Western blot) (agrin-EGFP)
1 | mouse neurotrypsin (protein) DPVSRSPLHRPHPSPPRSQHAHYLPSSRRPPRTPRFPLPLRIPAAQRPQVLSTGHTPPTIPRRCGAGESWGNATNLGVPCLHWDEVPPFLERSPPASWAELRGQPHNFCRSPDGSGRPWCFYRNAQGKVDWGYCDCGQGPALPVIRLVGGNSGHEGRVELYHAGQWGTICDDQWDNADADVICRQLGLSGIAKAWHQAHFGEGSGPILLDEVRCTGNELSIEQCPKSSWGEHNCGHKEDAGVSCVPLTDGVIRLAGGKSTHEGRLEVYYKGQWGTVCDDGWTEMNTYVACRLLGFKYGKQSSVNHFDGSNRPIWLDDVSCSGKEVSFIQCSRRQWGRHDCSHREDVGLTCYPDSDGHRLSPGFPIRLVDGENKKEGRVEVFVNGQWGTICDDGWTDKHAAVICRQLGYKGPARARTMAYFGEGKGPIHMDNVKCTGNEKALADCVKQDIGRHNCRHSEDAGVICDYLEKKASSSGNKEMLSSGCGLRLLHRRQKRIIGGNNSLRGAWPWQASLRLRSAHGDGRLLCGATLLSSCWVLTAAHCFKRYGNNSRSYAVRVGDYHTLVPEEFEQEIGVQQIVIHRNYRPDRSDYDIALVRLQGPGEQCARLSTHVLPACLPLWRERPQKTASNCHITGWGDTGRAYSRTLQQAAVPLLPKRFCKERYKGLFTGRMLCAGNLQEDNRVDSCQGDSGGPLMCEKPDESWVVYGVTSWGYGCGVKDTPGVYTRVPAFVPWIKSVTSL | Western blotting with antibodies versus the C-terminal moiety of agrin revealed a highly similar temporal pattern | Western blot detection of the 150 kDa C-terminal fragment of agrin (Ag-CF) generated by neurotrypsin-mediated cleavage of agrin-EGFP | In 200 µl culture medium of double transfected HEK293T cells a 100-kDa band was detected with the anti-agrin antibody |  | 
2 | catalytically inactive neurotrypsin (Neurotrypsin Ser711Ala) (protein) DPVSRSPLHRPHPSPPRSQHAHYLPSSRRPPRTPRFPLPLRIPAAQRPQVLSTGHTPPTIPRRCGAGESWGNATNLGVPCLHWDEVPPFLERSPPASWAELRGQPHNFCRSPDGSGRPWCFYRNAQGKVDWGYCDCGQGPALPVIRLVGGNSGHEGRVELYHAGQWGTICDDQWDNADADVICRQLGLSGIAKAWHQAHFGEGSGPILLDEVRCTGNELSIEQCPKSSWGEHNCGHKEDAGVSCVPLTDGVIRLAGGKSTHEGRLEVYYKGQWGTVCDDGWTEMNTYVACRLLGFKYGKQSSVNHFDGSNRPIWLDDVSCSGKEVSFIQCSRRQWGRHDCSHREDVGLTCYPDSDGHRLSPGFPIRLVDGENKKEGRVEVFVNGQWGTICDDGWTDKHAAVICRQLGYKGPARARTMAYFGEGKGPIHMDNVKCTGNEKALADCVKQDIGRHNCRHSEDAGVICDYLEKKASSSGNKEMLSSGCGLRLLHRRQKRIIGGNNSLRGAWPWQASLRLRSAHGDGRLLCGATLLSSCWVLTAAHCFKRYGNNSRSYAVRVGDYHTLVPEEFEQEIGVQQIVIHRNYRPDRSDYDIALVRLQGPGEQCARLSTHVLPACLPLWRERPQKTASNCHITGWGDTGRAYSRTLQQAAVPLLPKRFCKERYKGLFTGRMLCAGNLQEDNRVDSCQGDAGGPLMCEKPDESWVVYGVTSWGYGCGVKDTPGVYTRVPAFVPWIKSVTSL |  |  | no signal was detected in medium of HEK293T cells transfected with agrin and catalytically inactive neurotrypsin |  | 
3 | human neurotrypsin (protein) FDSVLNDSLHHSHRHSPPAGPHYPYYLPTQQRPPRTRPPPPLPRFPRPPRALPAQRPHALQAGHTPRPHPWGCPAGEPWVSVTDFGAPCLRWAEVPPFLERSPPASWAQLRGQRHNFCRSPDGAGRPWCFYGDARGKVDWGYCDCRHGSVRLRGGKNEFEGTVEVYASGVWGTVCSSHWDDSDASVICHQLQLGGKGIAKQTPFSGLGLIPIYWSNVRCRGDEENILLCEKDIWQGGVCPQKMAAAVTCSFSHGPTFPIIRLAGGSSVHEGRVELYHAGQWGTVCDDQWDDADAEVICRQLGLSGIAKAWHQAYFGEGSGPVMLDEVRCTGNELSIEQCPKSSWGEHNCGHKEDAGVSCTPLTDGVIRLAGGKGSHEGRLEVYYRGQWGTVCDDGWTELNTYVVCRQLGFKYGKQASANHFEESTGPIWLDDVSCSGKETRFLQCSRRQWGRHDCSHREDVSIACYPGGEGHRLSLGFPVRLMDGENKKEGRVEVFINGQWGTICDDGWTDKDAAVICRQLGYKGPARARTMAYFGEGKGPIHVDNVKCTGNERSLADCIKQDIGRHNCRHSEDAGVICDYFGKKASGNSNKESLSSVCGLRLLHRRQKRIIGGKNSLRGGWPWQVSLRLKSSHGDGRLLCGATLLSSCWVLTAAHCFKRYGNSTRSYAVRVGDYHTLVPEEFEEEIGVQQIVIHREYRPDRSDYDIALVRLQGPEEQCARFSSHVLPACLPLWRERPQKTASNCYITGWGDTGRAYSRTLQQAAIPLLPKRFCEERYKGRFTGRMLCAGNLHEHKRVDSCQGDSGGPLMCERPGESWVVYGVTSWGYGCGVKDSPGVYTKVSAFVPWIKSVTKL |  |  |  | The cleavage products agrin-C45 are found between 20 and 25 kDa | Lane 2 shows the agrin-EGFP (indicated by arrow marked Ag-EGPF) and the C-terminal fragment of approximately 150 kDa generated by neurotrypsin activity
